The target of test [1] is T1, human TIGIT expressed on cells (human, UniProt Q495A1 22-244).
T1 construct: whole, on cells; on Jurkat E6.1 cells transduced with human TIGIT, on Promega TIGIT Effector cells or on human primary T cells; the assay field says which; also called hTIGIT; Jurkat-hTIGIT
T1 sequence (looked up): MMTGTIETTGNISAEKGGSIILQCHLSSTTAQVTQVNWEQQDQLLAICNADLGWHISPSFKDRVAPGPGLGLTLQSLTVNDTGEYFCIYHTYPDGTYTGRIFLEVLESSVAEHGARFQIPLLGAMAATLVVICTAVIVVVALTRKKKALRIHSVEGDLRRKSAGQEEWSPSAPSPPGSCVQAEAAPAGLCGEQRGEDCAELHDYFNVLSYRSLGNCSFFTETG
The test can be described thus: flow cytometry, AF647-32959 on Jurkat-hTIGIT; competitor 31282 at 0 nM. The method, then:
(§1) Geometric mean fluorescence intensity was analysed using LSR BD Fortessa. Cell binding was recorded as the median florescence intensity of AF647.

The target in test [2] is T1, human TIGIT expressed on cells. The test is described as follows: flow cytometry, AF647-32959 on Jurkat-hTIGIT; competitor 31282 at 0.08 nM. The protocol:
as §1
In general terms: In flow cytometry, cells or beads pass a laser one at a time.

Test [3] has the same target. The test can be described thus: flow cytometry, AF647-32959 on Jurkat-hTIGIT; competitor 31282 at 0.16 nM. The protocol: as §1
Test [4] shares this target. The test can be described thus: flow cytometry, cell binding Jurkat human TIGIT.
Test [5] has the same target. The test can be described thus: flow cytometry, AF647-32959 on Jurkat-hTIGIT; competitor 31282 at 0.8 nM. The protocol: as §1
Test [6] shares this target. The test can be described thus: flow cytometry, AF647-32959 on Jurkat-hTIGIT; competitor 31282 at 8 nM. The method, then: as §1

As a reminder, the EC50 is the concentration that produces a half-maximal response. Higher therefore signals weaker potency.

B1: anti-TIGIT antibody clone 32959 (human IgG1) (antibody, V domains shown)
VH: QVQLVQSGAEVKKPGSSVKVSCKASGGTFSSYLISWVRQAPGQGLEWMGGIYPIFATANYAQKFQGRVTITADESTSTAYMELSSLRSEDTAVYYCAREAQSYRVPFDIWGQGTMVTVSS
VL: EIVMTQSPATLSVSPGERATLSCRASQSVSSNLAWYQQKPGQAPRLLIYGASTRATGIPARFSGSGSGTEFTLTISSLQSEDFAVYYCQQYAIWPPFTFGGGTKVEIK
modifications: The antibody was directly coupled to the dye AF647 in Example 24; the attachment sites are not stated.
notes: human IgG1 made in HEK cells
As to B1, the concentration for a half-maximal effect (EC50) turned out to be 0.22 nM in test [1]; 0.33 nM in test [2]; 0.37 nM in test [3]; 0.49 nM in test [5]; 0.39 nM in test [6]. Also, in test [4], the “FON (Fold Over Negative)” value came out at 588 fold.

(Values after US20200407445A1 (ITEOS THERAPEUTICS, published 2020).)
